In experiment [1] the target is T1, human CTLA-4 (human, UniProt P16410 36-161, limits assumed).
T1 construct: Construct not described (no limits, tag or fusion partner stated); also called huCTLA-4; CD152
Put plainly: blocking ELISA: antibody pre-incubated with human CTLA-4, binding of CTLA-4 to coated CD80 detected.

Experiment [2] addresses T2, mouse CTLA-4 (mouse, UniProt P09793 36-161, limits assumed).
T2 construct: construct not described; also called murine CTLA-4; the mouse protein
Nature of the experiment: affinity ELISA, antibody coated, mouse CTLA-4 titrated; 2C8 IgG1 with LALA mutation (L234A, L235A). The source says: (§1) The “LALA” mutation refers to mutation of leucine residues at positions 234 and […] of the of the Fc region to alanine (i.e. L234A, L235A); this mutation is known to weaken interaction between Fc and Fc-γR, and therefore to prevent ADCC activity (see e.g. Hezareh et al., J Virol (2001) 75(24):12161-12168).
A general note: ELISA stands for enzyme-linked immunosorbent assay.

Experiment [3] concerns the target T2, mouse CTLA-4. Nature of the experiment: avidity ELISA, mouse CTLA-4 coated, antibody titrated. How it is done: (§2) The response curve was plotted (see FIG. 10), and EC50 was calculated.
Experiment [4] concerns the target T1, human CTLA-4. Nature of the experiment: cell-based or functional assay.
The target in experiment [5] is T1, human CTLA-4. Put plainly: SPR, antibody immobilised on chip, human CTLA-4 flowed over. (In general: Surface plasmon resonance follows binding to a sensor surface in real time, without labels.)
In experiment [6] the target is T1, human CTLA-4. Nature of the experiment: affinity ELISA, antibody coated, human CTLA-4 titrated.
Experiment [7] concerns the target T3, mouse CTLA-4 expressed on HEK-293.6E cells (mouse, UniProt P09793 36-223).
T3 construct: whole, on cells; also called cell surface-expressed mouse CTLA-4
Nature of the experiment: flow cytometry on HEK-293.6E cells transfected with mouse CTLA-4.

The target in experiment [8] is T2, mouse CTLA-4. Put plainly: affinity ELISA, antibody coated, mouse CTLA-4 titrated; 2C8 IgG1.
Source text: as §1

Experiment [9] deals with T4, Cynomolgus/Rhesus CTLA-4 (cynomolgus/rhesus).
T4 construct: Printed as one protein 'Cynomolgus/Rhesus CTLA-4'
Nature of the experiment: ELISA, antibody coated, Cynomolgus/Rhesus CTLA-4 titrated.

Experiment [10] addresses T5, human CTLA-4 expressed on HEK-293.6E cells (human, UniProt P16410 36-223).
T5 construct: whole, on cells; also called cell surface-expressed human CTLA-4
Put plainly: flow cytometry on HEK-293.6E cells transfected with human CTLA-4. For orientation: A flow cytometer gives signals particle by particle.

In experiment [11] the target is T6, Human CD28 conjugated to human Fc (human, UniProt P10747 19-152).
T6 construct: not shown: human Fc
Put plainly: ELISA, human CD28-human Fc coated, antibody titrated.

Experiment [12] addresses T1, human CTLA-4. Nature of the experiment: avidity ELISA, human CTLA-4 coated, antibody titrated. How it is done:
as §2

For experiment [13], the target named is T6, Human CD28 conjugated to human Fc. Nature of the experiment: ELISA, human CD28-Fc coated, antibody titrated.
Experiment [14] deals with T1, human CTLA-4. Put plainly: ELISA, human CTLA-4 coated, Fab titrated.
The target of experiment [15] is T2, mouse CTLA-4. Put plainly: affinity ELISA, antibody coated, mouse CTLA-4 titrated; 2C8 IgG4.
Source text: as §1

The target in experiment [16] is T2, mouse CTLA-4. Nature of the experiment: affinity ELISA, antibody coated, mouse CTLA-4 titrated; 2C8_gI IgG1.
Source text: as §1

Numbering of substitutions follows the chain as printed.

T1 sequence (P16410 36-161 limits assumed): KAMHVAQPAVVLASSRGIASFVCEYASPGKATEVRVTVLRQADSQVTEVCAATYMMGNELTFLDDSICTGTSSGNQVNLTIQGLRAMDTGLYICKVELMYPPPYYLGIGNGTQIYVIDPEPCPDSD
T5 sequence (P16410 36-223): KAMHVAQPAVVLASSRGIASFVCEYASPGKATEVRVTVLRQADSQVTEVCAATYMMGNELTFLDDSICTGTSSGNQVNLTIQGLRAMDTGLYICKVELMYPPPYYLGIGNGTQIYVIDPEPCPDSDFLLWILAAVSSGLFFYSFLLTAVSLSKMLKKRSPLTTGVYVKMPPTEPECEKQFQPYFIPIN

B1: L3D10 (commercial mouse anti-human CTLA-4 IgG1) (antibody, V domains shown)
VH: QVQLKESGPGLVAPSQSLSITCTVSGFSLTSYGLSWVRQPPGKGLEWLGVIWYDGNTNFHSALISRLTISKDNSKSQVFLELNSLQTDDTATYYCAKTEGHYYGSNYGYYALDYWGQGTSVTVSS
VL: DIQMTQSPASLSVSVGETVTITCRASENIYSNLAWYQQKQGKSPQLLVYAATNLADGVPSRFSGSGSGTQYSLKINSLQSEDFGTYFCQHLWGTPYTFGGGTKLEIK
B1: in experiment [1], the “IC50 (read off the curve)” value was roughly 1 nM.

B2: 2C8 IgG1 with LALA mutation (antibody, V domains shown)
VH: QVQLQQSGPGLVKPSQTLSLTCAISGDTVSSNTAAWNWIRQSPSRGLEWLGRTYYRSKWYSDYGLSVKSRMTINADTSKNQVSLHLNSVTPEDTAVYYCAREGSGGTLIYWGQGTLVTVSS
VL: DIQLTQSPSSVSASVGDRVTITCRATQGISSWLAWYQQKPGKAPKLLIYAASSLQSGVPSRFSGSGSGTEFTLTISSLQPEDFATYYCQQANTLPLFTFGPGTKVDIK
notes: also called 2C8 with LALA mutation; 2C8 with the mutation
The EC50 is the concentration that produces a half-maximal response. High values mean a less potent agent, low ones a more potent agent. Consider B2, for which the EC50 in experiment [2] is 5.1 nM; in [3] it was 8 nM. For the same molecule, the “EC50, T cell reactivation assay (IL-2 secretion by Jurkat T cells)” value in experiment [4] fell in the range of 0.7 to 1.2 nM.

B3: anti-CTLA-4 antibody clone 2C8, human IgG1 (antibody, V domains shown)
VH: B2 VH
VL: B2 VL
notes: also called 2C8 IgG; 2C8 IgG1
As usually defined, the Kd is the free concentration of one partner at which half of the binding sites on the other are occupied at equilibrium, for simple one-to-one binding. What is called EC50 (read off the curve) is the midpoint of the concentration-response curve. The low end stands for a more potent agent, the high end for a less potent agent. Regarding B3, in experiment [5], the affinity, expressed as Kd, was 9.6 nM. Besides, the EC50 in [6] came to 5 nM; in experiment [8], 9.6 nM; in experiment [3], 4.9 nM; in [12] it was 0.0636 nM. Besides, the concentration for a half-maximal effect (EC50 (read off the curve)) in experiment [7] is roughly 6 nM; in experiment [9], roughly 0.3 nM; in [10] it was roughly 4 nM. Further, in [11], the binding result is listed as “no binding”.

B4: anti-CTLA-4 antibody clone 2C8, Fab (Fab, V domains shown)
VH: B2 VH
VL: B2 VL
notes: Fab from a human antibody phage display library
As to B4, the binding result in experiment [13] is listed as “no binding (tested: 1000 nM)”. The 50% effective concentration (EC50 (read off the curve)) in [14] is roughly 1 nM. Moreover, the “IC50 (read off the curve)” value in [1] was roughly 5 nM.

B5: 2C8 IgG4 (antibody, V domains shown)
VH: B2 VH
VL: B2 VL
notes: IgG4 format; also called IgG4 version of 2C8
On to B5, for which the EC50 was 20.9 nM in experiment [3] and 7 nM in experiment [15].

B6: anti-CTLA-4 antibody clone 2C8_gI, IgG1 (antibody, V domains shown)
VH: B2 VH with T28S, M71I, A75P, V82F, H85Q
VL: B2 VL with L4M, E70D
notes: IgG1; also called germline version of the antibody
For B6, the EC50 is 77.1 nM in experiment [3] and 23.5 nM in experiment [16].

(Values after patent publication US20170226211A1 (AGENCY OR SCIENCE TECHNOLOGY AND RESEARCH, published 2017).)
